Results reported in PMC7474679 (Proceedings of the National Academy of Sciences of the …, 2020).
No end group written: not given here. *: point of attachment. FITC = O=C1OC2(c3ccc(O)cc3Oc3cc(O)ccc32)c2ccc(NC(=S)*)cc21

T1: Full-length S. cerevisiae Pex5 (S. cerevisiae, UniProt P35056 1-612)
T1 sequence: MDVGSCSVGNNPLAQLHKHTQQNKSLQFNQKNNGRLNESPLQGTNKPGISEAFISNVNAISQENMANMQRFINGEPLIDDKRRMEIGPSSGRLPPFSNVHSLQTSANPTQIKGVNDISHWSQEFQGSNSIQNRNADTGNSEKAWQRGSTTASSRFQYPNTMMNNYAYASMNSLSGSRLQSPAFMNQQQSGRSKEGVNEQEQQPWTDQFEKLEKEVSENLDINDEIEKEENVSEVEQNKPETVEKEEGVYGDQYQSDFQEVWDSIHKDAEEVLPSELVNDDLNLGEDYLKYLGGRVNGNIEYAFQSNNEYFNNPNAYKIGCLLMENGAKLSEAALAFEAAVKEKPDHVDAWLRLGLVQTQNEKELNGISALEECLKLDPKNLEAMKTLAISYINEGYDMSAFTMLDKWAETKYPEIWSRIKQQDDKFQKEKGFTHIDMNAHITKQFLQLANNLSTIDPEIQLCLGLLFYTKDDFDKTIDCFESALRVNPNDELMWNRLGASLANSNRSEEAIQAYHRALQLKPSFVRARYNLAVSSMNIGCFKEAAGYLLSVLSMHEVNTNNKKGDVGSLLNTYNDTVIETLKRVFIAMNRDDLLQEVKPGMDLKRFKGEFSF


target: T1, Full-length S. cerevisiae Pex5; assay: fluorescence polarisation

Row | Binder | Kd [nM]
1 | {FITC}-GMDELYKSKL [mCherry-SKL peptide (FITC-GMDELYKSKL)] | 9840
2 | {FITC}-YARVKRSSRL [Lys1 peptide (FITC-YARVKRSSRL)] | 29.3 ± 3.65
3 | {FITC}-YKSSRNKSKL [Pcs60 peptide (FITC-YKSSRNKSKL)] | 455 ± 43.8
4 | {FITC}-YNENKRKAKL [Cat2 peptide (FITC-YNENKRKAKL)] | 49.9 ± 4.1
